According to IntAct's records for PubMed 15020407:

B1: High osmolarity signaling protein SHO1 (Saccharomyces cerevisiae), P40073 (parent)
chain: MSISSKIRPTPRKPSRMATDHSFKMKKFYADPFAISSISLAIVSWVIAIGGSISSASTNESFPRFTWWGIVYQFLIICSLMLFYCFDLVDHYRIFITTSIAVAFVYNTNSATNLVYADGPKKAAASAGVILLSIINLIWILYYGGDNASPTNRWIDSFSIKGIRPSPLENSLHRARRRGNRNTTPYQNNVYNDAIRDSGYATQFDGYPQQQPSHTNYVSSTALAGFENTQPNTSEAVNLHLNTLQQRINSASNAKETNDNSNNQTNTNIGNTFDTDFSNGNTETTMGDTLGLYSDIGDDNFIYKAKALYPYDADDDDAYEISFEQNEILQVSDIEGRWWKARRANGETGIIPSNYVQLIDGPEEMHR
partner: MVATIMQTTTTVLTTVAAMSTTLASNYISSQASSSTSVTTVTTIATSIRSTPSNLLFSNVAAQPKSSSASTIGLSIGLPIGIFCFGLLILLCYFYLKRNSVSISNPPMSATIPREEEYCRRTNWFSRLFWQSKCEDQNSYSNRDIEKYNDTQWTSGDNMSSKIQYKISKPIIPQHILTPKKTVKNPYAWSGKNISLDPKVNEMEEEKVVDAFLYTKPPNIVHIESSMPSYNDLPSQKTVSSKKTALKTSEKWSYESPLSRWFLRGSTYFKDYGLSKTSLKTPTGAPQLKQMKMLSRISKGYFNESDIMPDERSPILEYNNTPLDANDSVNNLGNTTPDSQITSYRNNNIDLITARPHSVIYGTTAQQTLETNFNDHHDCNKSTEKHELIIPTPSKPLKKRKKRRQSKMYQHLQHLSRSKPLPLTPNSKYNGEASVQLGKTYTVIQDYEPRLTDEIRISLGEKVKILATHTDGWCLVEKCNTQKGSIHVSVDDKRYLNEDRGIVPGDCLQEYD

Variants of: B1
Conditions: with fus1_yeast FUS1, P11710

Row | effect of a mutation on the interaction | Variant
1 | decreasing interaction | P352A
